Columns and labels:
[1] = biological target: BcsD (purified alone via a cleavable N-terminal hexahistidine tag, Bcs^H^isD) (G. hansenii); assay: cryo-EM structure
[2] = biological target: N-terminally hexahistidine-tagged full-length BcsH (Bcs^H^isH^FL) (G. hansenii); assay: SDS-PAGE and Western blot

stoichiometry N [1]	stoichiometry N [2]	Substance
8		BcsD (purified alone via a cleavable N-terminal hexahistidine tag, Bcs^H^isD) (natural protein)
	2	N-terminally hexahistidine-tagged full-length BcsH (Bcs^H^isH^FL) (natural protein)

— publication PMC9757748
